Publication PMC7972864 (2021)

Tests used:
[1] = target: T1, rhKeap1^R415A+Y525A+ (residue 321-609 aa) (human, UniProt Q14145 321-609, R415A | Y525A, biotinylated (site not stated)); test: BLI
[2] = target: T1, rhKeap1^R415A+Y525A+ (residue 321-609 …); test: BLI; remark: listed apart in the source

T1 sequence (Q14145 321-609 R415A/Y525A): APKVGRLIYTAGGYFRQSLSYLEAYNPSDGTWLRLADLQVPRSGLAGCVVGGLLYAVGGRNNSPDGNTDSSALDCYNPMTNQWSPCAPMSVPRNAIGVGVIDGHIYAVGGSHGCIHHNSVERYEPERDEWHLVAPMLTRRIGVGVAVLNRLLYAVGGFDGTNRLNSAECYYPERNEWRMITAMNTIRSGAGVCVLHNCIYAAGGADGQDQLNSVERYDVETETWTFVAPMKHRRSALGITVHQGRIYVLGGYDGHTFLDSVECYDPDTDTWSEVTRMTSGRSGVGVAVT

B1: human Nrf2 protein (natural protein)
chain: MMDLELPPPGLPSQQDMDLIDILWRQDIDLGVSREVFDFSQRRKEYELEKQKKLEKERQEQLQKEQEKAFFAQLQLDEETGEFLPIQPAQHIQSETSGSANYSQVAHIPKSDALYFDDCMQLLAQTFPFVDDNEVSSATFQSLVPDIPGHIESPVFIATNQAQSPETSVAQVAPVDLDGMQQDIEQVWEELLSIPELQCLNIENDKLVETTMVPSPEAKLTEVDNYHFYSSIPSMEKEVGNCSPHFLNAFEDSFSSILSTEDPNQLTVNSLNSDATVNTDFGDEFYSAFIAEPSISNSMPSPATLSHSLSELLNGPIDVSDLSLCKAFNQNHPESTAEFNDSDSGISLNTSPSVASPEHSVESSSYGDTLLGLSDSEVEELDSAPGSVKQNGPKTPVHSSGDMVQPLSPSQGQSTHVHDAQCENTPEKELPVSPGHRKTPFTKDKHSSRLEAHLTRDELRAKALHIPFPVEKIINLPVVDFNEMMSKEQFNEAQLALIRDIRRRGKNKVAAQNCRKRKLENIVELEQDLDHLKDEKEKLLKEKGENDKSLHLLKKQLSTLYLEVFSMLRDEDGKPYSPSEYSLQQTRDGNVFLVPKSKKPDVKKN
- Kd [1]: 0.107 µM
- koff [2]: 0.00262 s⁻¹
